{"source": "patent US7892567", "proteins": {"B1": {"name": "recombinant chlamydial protease-like activity factor (CPAF) from the C. trachomatis L2 genome, fusion protein with a 6-His tag at the N-terminus (protein)", "chain": "MGFWRTSIMKMNRIWLLLLTFSSAIHSPVRGESLVCKNALQDLSFLEHLLQVKYAPKTWKEQYLGWDLVQSSVSAQQKLRTQENPSTSFCQQVLADFIGGLNDFHAGVTFFAIESAYLPYTVQKSSDGRFYFVDIMTFSSEIRVGDELLEVDGAPVQDVLATLYGSNHKGTAAEESAALRTLFSRMASLGHKVPSGRTTLKIRRPFGTTREVRVKWRYVPEGVGDLATIAPSIRAPQLQKSMRSFFPKKDDAFHRSSSLFYSPMVPHFWAELRNHYATSGLKSGYNIGSTDGFLPVIGPVIWESEGLFRAYISSVTDGDGKSHKVGFLRIPTYSWQDMEDFDPSGPPPWEEFAKIIQVFSSNTEALIIDQTNNPGGSVLYLYALLSMLTDRPLELPKHRMILTQDEVVDALDWLTLLENVDTNVESRLALGDNMEGYTVDLQVAEYLKSFGRQVLNCWSKGDIELSTPIPLFGFEKIHPHPRVQYSKPICVLINEQDFSCADFFPVVLKDNDRALIVGTRTAGAGGFVFNVQFPNRTGIKTCSLTGSLAVREHGAFIENIGVEPHIDLPFTANDIRYKGYSEYLDKVKKLVCQLINNDGTIILAEDGSF"}}, "target": "T1, transcription factor RFX-5, P48382", "T1 chain": "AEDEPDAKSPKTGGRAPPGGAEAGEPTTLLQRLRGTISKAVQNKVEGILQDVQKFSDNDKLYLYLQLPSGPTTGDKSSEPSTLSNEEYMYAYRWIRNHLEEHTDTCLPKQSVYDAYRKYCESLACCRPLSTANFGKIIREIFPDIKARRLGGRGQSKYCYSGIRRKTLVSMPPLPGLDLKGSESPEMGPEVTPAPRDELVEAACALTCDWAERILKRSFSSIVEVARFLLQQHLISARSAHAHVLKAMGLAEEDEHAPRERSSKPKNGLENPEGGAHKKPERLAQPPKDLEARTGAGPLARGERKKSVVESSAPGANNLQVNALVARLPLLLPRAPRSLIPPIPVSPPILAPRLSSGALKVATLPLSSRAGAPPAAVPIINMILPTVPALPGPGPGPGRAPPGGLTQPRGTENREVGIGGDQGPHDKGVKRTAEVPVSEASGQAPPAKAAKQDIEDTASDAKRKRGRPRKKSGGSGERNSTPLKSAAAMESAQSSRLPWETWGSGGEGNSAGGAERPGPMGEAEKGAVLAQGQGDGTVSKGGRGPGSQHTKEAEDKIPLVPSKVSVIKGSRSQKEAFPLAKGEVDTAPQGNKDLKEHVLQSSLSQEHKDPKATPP", "data": [{"protein": "B1", "values": [{"measurement": "degradation of the transcription factor RFX-5", "result": "the biological activity of recombinant CPAF was confirmed by the ability to degrade the transcription factor, RFX-5"}]}]}
